{
  "source": "paper PMC2650391",
  "about": "(Molecular cell, 2009)",
  "molecules": {"B1": {"name": "ING4ΔPHD: ING4 derivative lacking the PHD finger (aa 1–194) (protein)", "chain": "MAAGMYLEHYLDSIENLPFELQRNFQLMRDLDQRTEDLKAEIDKLATEYMSSARSLSSEEKLALLKQIQEAYGKCKEFGDDKVQLAMQTYEMVDKHIRRLDTDLARFEADLKEKQIESSDYDSSSSKGKKKGRTQKEKKAARARSKGKNSDEEAPKTAQKKLKLVRTSPEYGMPSVTFGSVHPSDVLDMPVDPN", "modifications": "left off: GST (inferred from the vector pGEX6P1), end not stated, state not stated"}},
  "system": "H3K4me peptides / ING4 PHD finger",
  "assay": "Biotinylated histone peptide pull-down, Western analysis",
  "assay_type": "binding",
  "settings": "full-length vs PHD-deleted ING4",
  "data": [
    {"molecule": "B1", "values": [
      {"measurement": "recognition of methylated H3K4 peptides in pull-down", "value": "does not"}
    ]}
  ]
}
